# Measured values published in the supplement of paper PMC10567573.
# B1: ZNF277 (parent)
# chain: ILREELQKQRLREILEQQQQERND
# B2: C22orf15 (parent)
# chain: RGRHEQSPTSRPRKVSSLPPRSC
# Variants of: B1
# Assay: protein stability index of a GFP-peptide fusion (GPS, HEK-293T) (PSI 1-6); higher = more stable
# Details: c terminus: a fixed tail appended
# 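Also: lentivirally expressed fusions sorted by FACS into six bins by GFP to DsRed ratio, PSI derived from sequencing read proportions per bin multiplied by bin number.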
row,Variant,protein stability index
1,L6Y,4.22
2,E16I,3.74
3,E16V,3.9
4,E16P,4.8
5,E16H,3.87
6,E16T,4.71
7,E16L,3.63
8,E16Q,3.77
9,E16K,3.83
10,E16F,3.66
11,E16D,4.61
12,E16S,4.04
13,E16G,3.51
14,E16N,3.89
15,E16R,3.53
16,E16A,3.07
17,E16M,3.81
18,E16W,2.87
19,E21Y,3.73
20,E21H,4.61
21,E21I,2.94
22,E21N,3.9
23,E21G,4.04
24,E21M,3.73
25,E21Q,3.38
26,E21S,4.41

row,Variant,protein stability index
1,E21D,4.22
2,E21L,3.52
3,E21W,2.95
4,E21R,2.69
5,E21K,4.26
6,E21A,4.39
7,E21V,3.2
8,E21F,3.4
9,E21C,3.04
10,E21P,3.04
11,E21T,4.09
12,R22F,3.81
13,R22C,4.48
14,R22I,3.81
15,R22T,4.76
16,R22Q,4.44
17,R22A,4.4
18,R22P,4.57
19,R22M,4.45
20,R22E,4.61
21,R22D,4.92
22,R22G,4.67
23,R22V,3.53
24,R22H,4.4
25,R22W,3.72
26,R22N,4.75

row,Variant,protein stability index
1,R22S,4.73
2,R22K,4.63
3,R22L,4.46
4,R22Y,4.54
5,Q7P,5
6,Q7R,4.1
7,Q7W,2.37
8,Q7T,3.62
9,Q7I,2.9
10,Q7H,4.47
11,Q7M,3.74
12,Q7D,4.26
13,Q7K,3.46
14,Q7A,4.12
15,Q7F,2.93
16,Q7L,3.64
17,Q7V,3.58
18,Q7S,4.11
19,Q7N,4.44
20,Q7C,4.24
21,Q7G,5.06
22,Q7E,5.22
23,Q19M,3.35
24,Q19H,4.67
25,Q19E,3.98
26,Q19S,4.41

row,Variant,protein stability index
1,Q19Y,3.98
2,Q19W,2.85
3,Q19N,3.5
4,Q19L,3.87
5,Q19V,4.44
6,Q19G,4.57
7,Q19K,3.7
8,Q19D,4.4
9,Q19T,3.64
10,Q19F,2.91
11,Q19C,4.45
12,Q19P,4.29
13,Q19A,4.13
14,Q20G,4.22
15,Q20V,3.74
16,Q20M,3.96
17,Q20N,4.3
18,Q20K,4.51
19,Q20T,3.29
20,Q20I,4.36
21,Q20A,4.93
22,Q20P,4.17
23,Q20L,4.05
24,Q20F,3.44
25,Q20E,5.03
26,Q20W,3.18

row,Variant,protein stability index
1,Q20R,4.41
2,Q20H,3.94
3,Q20S,4.37
4,Q20Y,4.16
5,Q20C,4.2
6,N23C,3.98
7,N23H,4.04
8,N23V,3.89
9,N23T,4.37
10,N23S,4.05
11,N23E,4.59
12,N23P,4.47
13,N23G,3.98
14,N23Q,4.13
15,N23K,4.1
16,N23L,3.92
17,N23M,4.14
18,N23W,3.22
19,N23Y,3.56
20,N23D,4.96
21,N23A,4.53
22,N23F,3.73
23,N23I,4.02
24,N23R,3.75
25,R10C,3.28
26,R10D,5.47

row,Variant,protein stability index
1,R10S,4.7
2,R10T,4.59
3,R10F,3.47
4,R10P,4.83
5,R10E,4.83
6,R10Y,4.3
7,R10I,3.41
8,R10A,4.38
9,R10M,3.58
10,R10L,2.56
11,R10W,3.23
12,R10V,4.07
13,R10K,4.59
14,R10G,4.65
15,R10N,4.51
16,R10H,4.85
17,R12Q,4.72
18,R12L,4.36
19,R12N,4.86
20,R12K,4.6
21,R12E,5.08
22,R12W,3.67
23,R12M,4.58
24,R12D,5.8
25,R12G,5.05
26,R12V,4.41

row,Variant,protein stability index
1,R12Y,3.87
2,R12A,4.73
3,R12H,4.14
4,R12F,4.23
5,R12C,4.45
6,R12P,4.78
7,R12I,4.15
8,R12T,5.29
9,L15F,4.22
10,L15R,4.82
11,L15K,4.37
12,L15E,4.99
13,L15T,4.67
14,L15M,4.03
15,L15Q,5.14
16,L15I,4.48
17,L15Y,4.18
18,L15N,4.32
19,L15D,4.77
20,L15V,4.37
21,L15S,4.99
22,L15C,4.62
23,L15A,5.04
24,L15H,5.11
25,L15P,4.54
26,L15G,4.94

row,Variant,protein stability index
1,L15W,4.14
2,K8Y,4.11
3,K8A,4.7
4,K8V,4.07
5,K8M,4.12
6,K8E,5.3
7,K8F,4.38
8,K8I,3.1
9,K8H,4.41
10,K8G,4.82
11,K8D,4.43
12,K8T,4
13,K8S,4.81
14,K8L,3.63
15,K8P,5.07
16,K8C,3.96
17,K8Q,4.98
18,K8W,3.82
19,K8R,3.66
20,K8N,4.53
21,L11T,4.66
22,L11Y,4.58
23,L11I,4.52
24,L11Q,5.05
25,L11V,2.73
26,L11C,4.71

row,Variant,protein stability index
1,L11M,4.91
2,L11H,4.94
3,L11G,5.22
4,L11R,4.37
5,L11K,4.31
6,L11W,3.94
7,L11A,4.83
8,L11E,5.06
9,L11D,4.8
10,L11S,4.68
11,L11N,4.76
12,L11P,4.38
13,L11F,4.09
14,I14N,4.46
15,I14V,4.25
16,I14E,4.85
17,I14P,5.11
18,I14C,4.13
19,I14T,4.84
20,I14Q,4.81
21,I14H,3.89
22,I14D,5.07
23,I14M,4.3
24,I14G,4.74
25,I14Y,4.34
26,I14A,5.04

row,Variant,protein stability index
1,I14K,3.53
2,I14L,3.01
3,I14R,3.49
4,I14F,3.5
5,Q17F,3.87
6,Q17G,4.25
7,Q17S,4.63
8,Q17R,3.77
9,Q17E,4.82
10,Q17T,4.16
11,Q17W,3.49
12,Q17N,4.51
13,Q17C,3.6
14,Q17A,3.83
15,Q17P,4.2
16,Q17I,3.33
17,Q17M,3.88
18,Q17D,4.54
19,Q17L,4.29
20,Q17V,4.22
21,Q17H,4.38
22,D24C,3.91
23,D24W,2.73
24,D24F,3.26
25,D24E,4.12
26,D24I,3.64

row,Variant,protein stability index
1,D24A,3.47
2,D24G,3.77
3,D24K,3.83
4,D24R,3.48
5,D24L,4.08
6,D24S,3.68
7,D24N,4.08
8,D24P,3.85
9,D24H,3.16
10,D24V,4.05
11,D24M,4.14
12,D24Q,4.18
13,D24T,4.01
14,D24Y,3.7
15,Q18T,3.57
16,Q18Y,2.9
17,Q18D,4.46
18,Q18W,4.15
19,Q18S,3.99
20,Q18P,4.68
21,Q18K,3.72
22,Q18F,4.37
23,Q18N,4.37
24,Q18M,3.59
25,Q18G,4.57
26,Q18E,4.93

row,Variant,protein stability index
1,Q18L,3.37
2,Q18I,2.52
3,Q18R,4.97
4,Q18V,3.83
5,Q18A,3.98
6,Q18C,3.31
7,E13Q,4.22
8,E13K,4.22
9,E13C,3.76
10,E13L,3.75
11,E13Y,4.07
12,E13H,4.46
13,E13P,4.56
14,E13S,4.18
15,E13I,4.06
16,E13R,4.11
17,E13A,3.74
18,E13F,3.77
19,E13M,4.01
20,E13G,4.54
21,E13V,4.06
22,E13N,4.05
23,E13T,4.58
24,Q9W,3.53
25,Q9Y,3.9
26,Q9P,4.52

row,Variant,protein stability index
1,Q9I,4.18
2,Q9R,4.41
3,Q9G,4.05
4,Q9T,4.01
5,Q9M,4.32
6,Q9N,3.79
7,Q9D,4.98
8,Q9S,4.41
9,Q9K,4.42
10,Q9E,3.04
11,Q9H,5.05
12,Q9C,4.41
13,Q9F,4.12
14,Q9L,4.41
15,Q9V,4.15

# Variants of: B2
# Assay: as above
# Details: c terminus: native
row,Variant,protein stability index
1,R1M,3.56
2,R1A,3.06
3,R1D,2.81
4,R1V,1.73
5,R1W,3.77
6,R1Y,3.26
7,G2C,1.57
